Results taken from PMC3230568 (2011).

Target: p53 DBD 94-288 (Homo sapiens, UniProt P04637)
Assay: atomic force spectroscopy

p53 DBD 94-288, sequence (P04637 94-288): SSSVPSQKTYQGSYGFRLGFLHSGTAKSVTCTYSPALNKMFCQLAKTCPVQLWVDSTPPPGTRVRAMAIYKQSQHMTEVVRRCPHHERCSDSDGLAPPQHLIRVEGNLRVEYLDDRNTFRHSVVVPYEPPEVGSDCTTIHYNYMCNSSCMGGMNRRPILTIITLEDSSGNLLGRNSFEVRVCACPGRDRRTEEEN

B1: p28 (azurin fragment, Cys-p28) 50-77 (peptide)
chain: TVNLSHPGNLPKNVMGHNWVLSTAADMQ
With B1 the Kd was 630 nM.
